Reference: patent US20090131312A1

B1: recombinant human I-TAC (ligand, UniProt O14625 22-94, looked up)
C-X-C motif chemokine 11: FPMFKRGRCLCIGPGVKAVKVADIEKASIMYPSNNCDKIEVIITLKENKGQRCLNPKSKQARLIIKKVERKNF
B2: recombinant human MIG (ligand, UniProt Q07325 23-125, looked up)
C-X-C motif chemokine 9: TPVVRKGRCSCISTNQGTIHLQSLKDLKQFAPSPSCEKIEIIATLKNGVQTCLNPDSADVKELIKKWEKQVSQKKKQKNGKKHQKKKVLKVRKSQRSRQKKTT
B3: recombinant human PF4 (ligand, UniProt P02776 32-101, looked up)
Platelet factor 4: EAEEDGDLQCLCVKTTSQVRPRHITSLEVIKAGPHCPTAQLIATLKNGRKICLDLQAPLYKKIIKKLLES

These molecules were tested against human CXCR3 (human) (UniProt P49682) (assay: cell-based or functional assay).
UniProt P49682, sequence (P49682 whole entry): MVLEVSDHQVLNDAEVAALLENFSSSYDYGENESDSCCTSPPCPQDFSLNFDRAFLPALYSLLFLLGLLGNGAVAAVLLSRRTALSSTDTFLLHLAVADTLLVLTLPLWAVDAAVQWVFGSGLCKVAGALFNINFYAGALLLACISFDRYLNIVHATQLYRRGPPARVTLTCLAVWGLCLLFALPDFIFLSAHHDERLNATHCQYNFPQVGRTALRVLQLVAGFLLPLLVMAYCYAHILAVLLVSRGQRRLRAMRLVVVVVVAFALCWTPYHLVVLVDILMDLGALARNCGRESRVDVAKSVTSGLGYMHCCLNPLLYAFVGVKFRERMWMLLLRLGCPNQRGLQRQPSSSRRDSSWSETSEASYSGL
recombinant human IP-10 (ligand) gave a phosphorylated ERK1/2 (immunoblot), fold induction over control levels; HMVEC, 2 min. (fold induction over control) of 0.333, a phosphorylated ERK1/2 (immunoblot), fold induction over control levels; HMVEC, 5 min. (fold induction over control) of 0.07 and a phosphorylated ERK1/2 (immunoblot), fold induction over control levels; HMVEC, 15 min. (fold induction over control) of 0.382. For the same molecule, the phosphorylated ERK1/2 (immunoblot), fold induction over control levels; HUVEC, 2 min. (fold induction over control) was 10.3, the phosphorylated ERK1/2 (immunoblot), fold induction over control levels; HUVEC, 5 min. (fold induction over control) was 10.8 and the phosphorylated ERK1/2 (immunoblot), fold induction over control levels; HUVEC, 15 min. (fold induction over control) was 6.87. It also gave a phosphorylated ERK1/2 (immunoblot), fold induction over control levels; Pre-B-cells expressing human CXCR3, 2 min. (fold induction over control) of 1.03, a phosphorylated ERK1/2 (immunoblot), fold induction over control levels; Pre-B-cells expressing human CXCR3, 5 min. (fold induction over control) of 0.921 and a phosphorylated ERK1/2 (immunoblot), fold induction over control levels; Pre-B-cells expressing human CXCR3, 15 min. (fold induction over control) of 0.57.
“native PF4 with native I-TAC N-loop (ligand)” gave a phosphorylated ERK1/2 (immunoblot), fold induction over control levels; HMVEC, 2 min. (fold induction over control) of 0.915, a phosphorylated ERK1/2 (immunoblot), fold induction over control levels; HMVEC, 5 min. (fold induction over control) of 1.06 and a phosphorylated ERK1/2 (immunoblot), fold induction over control levels; HMVEC, 15 min. (fold induction over control) of 3.28. For the same molecule, the phosphorylated ERK1/2 (immunoblot), fold induction over control levels; HUVEC, 2 min. (fold induction over control) was 4.13, the phosphorylated ERK1/2 (immunoblot), fold induction over control levels; HUVEC, 5 min. (fold induction over control) was 5.68 and the phosphorylated ERK1/2 (immunoblot), fold induction over control levels; HUVEC, 15 min. (fold induction over control) was 9.83. For the same molecule, the phosphorylated ERK1/2 (immunoblot), fold induction over control levels; Pre-B-cells expressing human CXCR3, 2 min. (fold induction over control) was 1.57, the phosphorylated ERK1/2 (immunoblot), fold induction over control levels; Pre-B-cells expressing human CXCR3, 5 min. (fold induction over control) was 1.16 and the phosphorylated ERK1/2 (immunoblot), fold induction over control levels; Pre-B-cells expressing human CXCR3, 15 min. (fold induction over control) was 0.931.
Molecule B1 has a phosphorylated ERK1/2 (immunoblot), fold induction over control levels; HMVEC, 2 min. (fold induction over control) of 0.205, a phosphorylated ERK1/2 (immunoblot), fold induction over control levels; HMVEC, 5 min. (fold induction over control) of 0.137 and a phosphorylated ERK1/2 (immunoblot), fold induction over control levels; HMVEC, 15 min. (fold induction over control) of 3.08. For the same molecule, the phosphorylated ERK1/2 (immunoblot), fold induction over control levels; HUVEC, 2 min. (fold induction over control) was 1.65, the phosphorylated ERK1/2 (immunoblot), fold induction over control levels; HUVEC, 5 min. (fold induction over control) was 1.36 and the phosphorylated ERK1/2 (immunoblot), fold induction over control levels; HUVEC, 15 min. (fold induction over control) was 1.31. The phosphorylated ERK1/2 (immunoblot), fold induction over control levels; Pre-B-cells expressing human CXCR3, 2 min. (fold induction over control) was 2.24, the phosphorylated ERK1/2 (immunoblot), fold induction over control levels; Pre-B-cells expressing human CXCR3, 5 min. (fold induction over control) was 1.38 and the phosphorylated ERK1/2 (immunoblot), fold induction over control levels; Pre-B-cells expressing human CXCR3, 15 min. (fold induction over control) was 1.22.
B2 showed a phosphorylated ERK1/2 (immunoblot), fold induction over control levels; HMVEC, 2 min. (fold induction over control) of 1.56, a phosphorylated ERK1/2 (immunoblot), fold induction over control levels; HMVEC, 5 min. (fold induction over control) of 1.13 and a phosphorylated ERK1/2 (immunoblot), fold induction over control levels; HMVEC, 15 min. (fold induction over control) of 1.31. It also gave a phosphorylated ERK1/2 (immunoblot), fold induction over control levels; HUVEC, 2 min. (fold induction over control) of 5.35, a phosphorylated ERK1/2 (immunoblot), fold induction over control levels; HUVEC, 5 min. (fold induction over control) of 6.96 and a phosphorylated ERK1/2 (immunoblot), fold induction over control levels; HUVEC, 15 min. (fold induction over control) of 5.76. For the same molecule, the phosphorylated ERK1/2 (immunoblot), fold induction over control levels; Pre-B-cells expressing human CXCR3, 2 min. (fold induction over control) was 0.795, the phosphorylated ERK1/2 (immunoblot), fold induction over control levels; Pre-B-cells expressing human CXCR3, 5 min. (fold induction over control) was 0.842 and the phosphorylated ERK1/2 (immunoblot), fold induction over control levels; Pre-B-cells expressing human CXCR3, 15 min. (fold induction over control) was 1.76.
B3 showed a phosphorylated ERK1/2 (immunoblot), fold induction over control levels; HMVEC, 2 min. (fold induction over control) of 1.01, a phosphorylated ERK1/2 (immunoblot), fold induction over control levels; HMVEC, 5 min. (fold induction over control) of 0.895 and a phosphorylated ERK1/2 (immunoblot), fold induction over control levels; HMVEC, 15 min. (fold induction over control) of 1.78. The phosphorylated ERK1/2 (immunoblot), fold induction over control levels; HUVEC, 2 min. (fold induction over control) was 6.85, the phosphorylated ERK1/2 (immunoblot), fold induction over control levels; HUVEC, 5 min. (fold induction over control) was 9.63 and the phosphorylated ERK1/2 (immunoblot), fold induction over control levels; HUVEC, 15 min. (fold induction over control) was 11.5. The phosphorylated ERK1/2 (immunoblot), fold induction over control levels; Pre-B-cells expressing human CXCR3, 2 min. (fold induction over control) was 1.25, the phosphorylated ERK1/2 (immunoblot), fold induction over control levels; Pre-B-cells expressing human CXCR3, 5 min. (fold induction over control) was 1.33 and the phosphorylated ERK1/2 (immunoblot), fold induction over control levels; Pre-B-cells expressing human CXCR3, 15 min. (fold induction over control) was 1.45.
